Positions count from the first letter of the chain named. In names and notes the source's numbering stands. One block for each molecule: values may come before it.
Columns and labels:
CD16A V158 = target: T1, CD16A V158 (UniProt P08637 17-208, limits assumed); experiment: assay not named in Table 4
T1 construct: Only the name and allotype are printed; also called FcγRIIIA

CD16A F158 = target: T2, CD16A F158 (UniProt P08637 17-208, limits assumed); experiment: assay not named in Table 4
T2 construct: Only the name and allotype are printed; also called FcγRIIIA
T2 sequence (P08637 17-208 limits assumed): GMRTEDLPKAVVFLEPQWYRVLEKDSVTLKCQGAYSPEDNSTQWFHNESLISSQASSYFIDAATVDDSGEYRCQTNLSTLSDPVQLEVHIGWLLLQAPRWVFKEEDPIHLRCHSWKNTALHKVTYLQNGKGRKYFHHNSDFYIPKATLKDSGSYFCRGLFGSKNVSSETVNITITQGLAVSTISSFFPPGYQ

CD32B [1] = target: T3, CD32B (UniProt P31994 43-217, limits assumed); experiment: assay not named in Table 4
T3 construct: Only the name is printed; also called FcγRIIB
T3 sequence (looked up): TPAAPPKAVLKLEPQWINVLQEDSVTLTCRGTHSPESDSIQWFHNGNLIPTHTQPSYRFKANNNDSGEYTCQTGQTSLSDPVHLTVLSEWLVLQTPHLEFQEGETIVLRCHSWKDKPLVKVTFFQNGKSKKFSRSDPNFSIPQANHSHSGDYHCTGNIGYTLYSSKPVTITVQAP

CD32B [2] = target: T3, CD32B; experiment: assay not named in Table 4; cell stands under CD16A F158 but fits CD32B (0.94/1.07 = 0.88)

T1 sequence (P08637 17-208 F176V limits assumed): as the sequence (P08637 17-208 limits assumed) above, with F160V counted along it

Molecule: Fc variant V284M R292P K370N (from UniProt P01857 104-330)
binding relative to wild-type Fc (CD16A V158): 1.14 | binding relative to wild-type Fc (CD16A F158): 1.37 | binding relative to wild-type Fc (CD32B [1]): 0.37

B1: Fc variant D270E G316D P396L R416G (other, UniProt P01857-1 104-330, looked up)
chain: DKTHTCPPCPAPELLGGPSVFLFPPKPKDTLMISRTPEVTCVVVDVSHEEPEVKFNWYVDGVEVHNAKTKPREEQYNSTYRVVSVLTVLHQDWLNDKEYKCKVSNKALPAPIEKTISKAKGQPREPQVYTLPPSRDELTKNQVSLTCLVKGFYPSDIAVEWESNGQPENNYKTTPLVLDSDGSFFLYSKLTVDKSGWQQGNVFSCSVMHEALHNHYTQKSLSLSPGK
notes: domain: Fc; also called D270E P396L G316D R416G
binding relative to wild-type Fc (CD32B [1]): 1.07 | binding relative to wild-type Fc (CD32B [2]): 1.07

B2: Fc variant P247L D270E N421K (other, UniProt P01857-1 104-330, looked up)
chain: B1 chain with P27L, D96G, L176P, G196R, N201K
notes: domain: Fc
binding relative to wild-type Fc (CD16A V158): 1.89 | binding relative to wild-type Fc (CD16A F158): 2.46 | binding relative to wild-type Fc (CD32B [1]): 0.58

B3: Fc variant F243L R292P Y300L V305I P396L (other, UniProt P01857-1 104-330, looked up)
chain: B1 chain with F23L, E50D, R72P, Y80L, V85I, D96G, G196R
notes: domain: Fc; also called Mutant 18
binding relative to wild-type Fc (CD16A V158): 10.1 | binding relative to wild-type Fc (CD16A F158): 8.25 | binding relative to wild-type Fc (CD32B [1]): 1.38

B6: Fc variant R292P V305I P396L (other, UniProt P01857-1 104-330, looked up)
chain: B1 chain with E50D, R72P, V85I, D96G, G196R
notes: domain: Fc; also called Mutant 15
binding relative to wild-type Fc (CD16A V158): 1.85 | binding relative to wild-type Fc (CD16A F158): 1.9 | binding relative to wild-type Fc (CD32B [1]): 0.92

B12: Fc variant D270E G316D R416G (other, UniProt P01857-1 104-330, looked up)
chain: B1 chain with L176P
notes: domain: Fc
binding relative to wild-type Fc (CD16A V158): 2.18 | binding relative to wild-type Fc (CD16A F158): 2.49 | binding relative to wild-type Fc (CD32B [1]): 0.78

B13: Fc variant F243L P247L N421K (other, UniProt P01857-1 104-330, looked up)
chain: B1 chain with F23L, P27L, E50D, D96G, L176P, G196R, N201K
notes: domain: Fc
binding relative to wild-type Fc (CD16A V158): 1.89 | binding relative to wild-type Fc (CD16A F158): 1.71 | binding relative to wild-type Fc (CD32B [1]): 0.17

B14: Fc variant F243L R255L D270E P396L (other, UniProt P01857-1 104-330, looked up)
chain: B1 chain with F23L, R35L, D96G, G196R
notes: domain: Fc
binding relative to wild-type Fc (CD16A V158): 1.75 | binding relative to wild-type Fc (CD16A F158): 1.64 | binding relative to wild-type Fc (CD32B [1]): 0.38

B15: Fc variant D270E K392T P396L (other, UniProt P01857-1 104-330, looked up)
chain: B1 chain with D96G, K172T, G196R
notes: domain: Fc
binding relative to wild-type Fc (CD16A V158): 1.81 | binding relative to wild-type Fc (CD16A F158): 2.28 | binding relative to wild-type Fc (CD32B [1]): 0.79

B16: Fc variant F243L P247L D270E N421K (other, UniProt P01857-1 104-330, looked up)
chain: B1 chain with F23L, P27L, D96G, L176P, G196R, N201K
notes: domain: Fc
binding relative to wild-type Fc (CD16A V158): 2.3 | binding relative to wild-type Fc (CD16A F158): 3.45 | binding relative to wild-type Fc (CD32B [1]): 0.32

B17: Fc variant F243L D270E G316D R416G (other, UniProt P01857-1 104-330, looked up)
chain: B1 chain with F23L, L176P
notes: domain: Fc
binding relative to wild-type Fc (CD16A V158): 1.5 | binding relative to wild-type Fc (CD16A F158): 1.34 | binding relative to wild-type Fc (CD32B [1]): 0.2

Other lines, results leading:

binding relative to wild-type Fc (CD16A V158): 5.37 | binding relative to wild-type Fc (CD16A F158): 2.53 | binding relative to wild-type Fc (CD32B [1]): 0.4
B4: Fc variant F243L R292P V305I P396L (other, UniProt P01857-1 104-330, looked up)
chain: B1 chain with F23L, E50D, R72P, V85I, D96G, G196R
notes: domain: Fc; also called Mutant 17

binding relative to wild-type Fc (CD16A V158): 3.16 | binding relative to wild-type Fc (CD16A F158): 2.44 | binding relative to wild-type Fc (CD32B [1]): 0.44
B5: Fc variant F243L D270E K392T P396L (other, UniProt P01857-1 104-330, looked up)
chain: B1 chain with F23L, D96G, K172T, G196R
notes: domain: Fc

binding relative to wild-type Fc (CD16A V158): 1.64 | binding relative to wild-type Fc (CD32B [1]): 0.68
B7: Fc variant D270E P396L Q419H (other, UniProt P01857-1 104-330, looked up)
chain: B1 chain with D96G, G196R, Q199H
notes: domain: Fc

binding relative to wild-type Fc (CD16A V158): 1.46 | binding relative to wild-type Fc (CD16A F158): 1.15 | binding relative to wild-type Fc (CD32B [1]): 0.26
B8: Fc variant F243L D270E P396L Q419H (other, UniProt P01857-1 104-330, looked up)
chain: B1 chain with F23L, D96G, G196R, Q199H
notes: domain: Fc

binding relative to wild-type Fc (CD32B [1]): 0.65
B9: Fc variant R255L D270E R292G P396L (other, UniProt P01857-1 104-330, looked up)
chain: B1 chain with R35L, R72G, D96G, G196R
notes: domain: Fc

binding relative to wild-type Fc (CD16A V158): 2.56 | binding relative to wild-type Fc (CD16A F158): 1.43
B10: Fc variant F243L R292P V305I (other, UniProt P01857-1 104-330, looked up)
chain: B1 chain with F23L, E50D, R72P, V85I, D96G, L176P, G196R
notes: domain: Fc; also called Mutant 13*

binding relative to wild-type Fc (CD16A V158): 1.52 | binding relative to wild-type Fc (CD16A F158): 1.74 | binding relative to wild-type Fc (CD32B [1]): 0.87
B11: Fc variant R255L D270E Y300L P396L (other, UniProt P01857-1 104-330, looked up)
chain: B1 chain with R35L, Y80L, D96G, G196R
notes: domain: Fc

binding relative to wild-type Fc (CD16A V158): 10.1 | binding relative to wild-type Fc (CD16A F158): 5.62 | binding relative to wild-type Fc (CD32B [1]): 1.07
B18: Fc variant F243L R292P Y300L P396L (other, UniProt P01857-1 104-330, looked up)
chain: B1 chain with F23L, E50D, R72P, Y80L, D96G, G196R
notes: domain: Fc; also called Mutant 16

binding relative to wild-type Fc (CD16A F158): 3.12 | binding relative to wild-type Fc (CD32B [1]): 1.05
B19: Fc variant F243I R292P Y300L V305I P396L (other, UniProt P01857-1 104-330, looked up)
chain: B1 chain with F23I, E50D, R72P, Y80L, V85I, D96G, G196R
notes: domain: Fc; Written as printed (F243I); may be a misprint of F243L

binding relative to wild-type Fc (CD16A V158): 1.34 | binding relative to wild-type Fc (CD16A F158): 1.65 | binding relative to wild-type Fc (CD32B [1]): 0.87
B20: Fc variant R255L D270E P396L (other, UniProt P01857-1 104-330, looked up)
chain: B1 chain with R35L, D96G, G196R
notes: domain: Fc

Reference: patent US20180051079A1 (MacroGenics, published 2018)
